Like-named read-outs stand apart in the source and are kept apart here.
B1: MX1045 (bispecific antibody)
chain 1: EIVLTQSPGTLSLSPGETATLSCRASQSFSSDLAWYQQKPGQAPRLLIYGASSRATGIPDRFSGSGSGTDFTLTISRLEPADFAVYYCQQYGSSPPVTFGGGTKVEIKGGSSGQTVVTQEPSFSVSPGGTVTLTCGLSSGSVSTAYFPSWYQQTPGQAPRTLIYGTNTRSSGVPDRFSGSILGNKAALTITGAQADDESDYYCVLYMGRGIVVFGGGTKLTVLGGGGSGGSGSGGGGSASGSGQVQLVESGGGVVQPGRSLRLSCAASGFTLSSYGMHWVRQAPGKGLEWVAVISYDGSNKYYVDSVKGRFTISRDNSKNTLYLQMNSLRAEDTAVYYCRWAYWELLPDYYYGMDVWGQGTTVTVSSGGSSGEVQLVESGGGLIQPGGSLRLSCAASGVIVSYNYMNWVRQAPGKGLEWVSVIYSGGSTFYADSVRGRFTISRDNSKNTLYLQMNSLRAEDTAVYYCARDLGPAGAFDIWGLGTMVTVSSASGGSGDKTHTCPPCPAPELLGGPSVFLFPPKPKDTLMISRTPEVTCVVVDVSHEDPEVKFNWYVDGVEVHNAKTKPREEQYNSYVVSVLTVLHQDWLNGKEYKCKVSNKALPAPIEKTISKAKGQPREPQVYTLPPCRDELTKNQVSLWCLVKGFYPSDIAVEWESNGQPENNYKTTPPVLDSDGSFFKKLTVDKSRWQQGNVFSCSVLHEALHSHYTQKSLSLSPG
chain 2: QTVVTQEPSFSVSPGGTVTLTCGLSSGSVSTAYFPSWYQQTPGQAPRTLIYGTNTRSSGVPDRFSGSILGNKAALTITGAQADDESDYYCVLYMGRGIVVFGGGTKLTVLGGSSGEIVLTQSPGTLSLSPGETATLSCRASQSFSSDLAWYQQKPGQAPRLLIYGASSRATGIPDRFSGSGSGTDFTLTISRLEPADFAVYYCQQYGSSPPVTFGGGTKVEIKGGGGSGGSGSGGGGSASGSGEVQLVESGGGLIQPGGSLRLSCAASGVIVSYNYMNWVRQAPGKGLEWVSVIYSGGSTFYADSVRGRFTISRDNSKNTLYLQMNSLRAEDTAVYYCARDLGPAGAFDIWGLGTMVTVSSGGSSGQVQLVESGGGVVQPGRSLRLSCAASGFTLSSYGMHWVRQAPGKGLEWVAVISYDGSNKYYVDSVKGRFTISRDNSKNTLYLQMNSLRAEDTAVYYCRWAYWELLPDYYYGMDVWGQGTTVTVSSASGGSGDKTHTCPPCPAPELLGGPSVFLFPPKPKDTLMISRTPEVTCVVVDVSHEDPEVKFNWYVDGVEVHNAKTKPREEQYNSYVVSVLTVLHQDWLNGKEYKCKVSNKALPAPIEKTISKAKGQPREPQVCTLPPSRDELTKNQVSLSCAVKGFYPSDIAVEWESNGQPENNYKTTPPVLDSDGSFFLVSKLTVDKSRWQQGNVFSCSVLHEALHSHYTQKSLSLSPG
B2: A46 + E12 + B8 (protein)
VH 1: QVQLVESGGGVVQPGRSLRLSCAASGFTLSSYGMHWVRQAPGKGLEWVAVISYDGSNKYYVDSVKGRFTISRDNSKNTLYLQMNSLRAEDTAVYYCRWAYWELLPDYYYGMDVWGQGTTVTVSS
VL 1: QTVVTQEPSFSVSPGGTVTLTCGLSSGSVSTAYFPSWYQQTPGQAPRTLIYGTNTRSSGVPDRFSGSILGNKAALTITGAQADDESDYYCVLYMGRGIVVFGGGTKLTVL
VH 2: EVQLVESGGGLIQPGGSLRLSCAASGVIVSYNYMNWVRQAPGKGLEWVSVIYSGGSTFYADSVRGRFTISRDNSKNTLYLQMNSLRAEDTAVYYCARDLGPAGAFDIWGLGTMVTVSS
VL 2: EIVLTQSPGTLSLSPGETATLSCRASQSFSSDLAWYQQKPGQAPRLLIYGASSRATGIPDRFSGSGSGTDFTLTISRLEPADFAVYYCQQYGSSPPVTFGGGTKVEIK
VH 3: EVQLVESGGALIQPGGSLRLSCAASGIIVSANYMSWVRQAPGKGLEWVSVIYSGGSTFYADSVKGRFTISRDNSKNTLYLEMNSLRAEDTAVYYCARDAPILGVSDWGQGTLVTVSS
VL 3: EIVMTQSPAILSVSPGERATLSCRASQSVAINLAWYQQKPGQAPRLLIYAASSRATGIPGRFSGSGSETNFTLTISSLQSGDFAVYYCQQYITWPPSYTFGQGTKLEIK
B3: A46 + E12 + E8 (protein)
VH 1: B2 VH 1
VL 1: B2 VL 1
VH 2: B2 VH 2
VL 2: B2 VL 2
VH 3: QVTLRESGPALVKPTQTLTLTCTFSGFSLSTRGVCVSWIRQPPGKALEWLAFIDWDDDKYYNTSLKTRLTISKDTSKNQVVLTMTNVHPVDTATYYCARISSHHGSSWCTTFDYWGQGALVTVSA
VL 3: DTVMTQSPLSLPVTPGEPASISCRSSQSLLNSNGYNYLDWYVQKPGQSPQLLIYLGSNRASGVPDRFSGSGSGTDFTLKISRVEAEDVGVYYCMQPLQTPLFTFGPGTKVEIK
B4: A19-46 + E8 + B8 (protein)
VH 1: B2 VH 1
VL 1: B2 VL 1
VH 2: B3 VH 3
VL 2: B3 VL 3
VH 3: B2 VH 3
VL 3: B2 VL 3
B5: MX1046 (bispecific antibody)
chain 1: EIVLTQSPGTLSLSPGETATLSCRASQSFSSDLAWYQQKPGQAPRLLIYGASSRATGIPDRFSGSGSGTDFTLTISRLEPADFAVYYCQQYGSSPPVTFGGGTKVEIKGGSSGDTVMTQSPLSLPVTPGEPASISCRSSQSLLNSNGYNYLDWYVQKPGQSPQLLIYLGSNRASGVPDRFSGSGSGTDFTLKISRVEAEDVGVYYCMQPLQTPLFTFGPGTKVEIKGGGGSGGSGSGGGGSASGSGQVTLRESGPALVKPTQTLTLTCTFSGFSLSTRGVCVSWIRQPPGKALEWLAFIDWDDDKYYNTSLKTRLTISKDTSKNQVVLTMTNVHPVDTATYYCARISSHHGSSWCTTFDYWGQGALVTVSAGGSSGEVQLVESGGGLIQPGGSLRLSCAASGVIVSYNYMNWVRQAPGKGLEWVSVIYSGGSTFYADSVRGRFTISRDNSKNTLYLQMNSLRAEDTAVYYCARDLGPAGAFDIWGLGTMVTVSSASGGSGDKTHTCPPCPAPELLGGPSVFLFPPKPKDTLMISRTPEVTCVVVDVSHEDPEVKFNWYVDGVEVHNAKTKPREEQYNSYVVSVLTVLHQDWLNGKEYKCKVSNKALPAPIEKTISKAKGQPREPQVYTLPPCRDELTKNQVSLWCLVKGFYPSDIAVEWESNGQPENNYKTTPPVLDSDGSFFKKLTVDKSRWQQGNVFSCSVLHEALHSHYTQKSLSLSPG
chain 2: DTVMTQSPLSLPVTPGEPASISCRSSQSLLNSNGYNYLDWYVQKPGQSPQLLIYLGSNRASGVPDRFSGSGSGTDFTLKISRVEAEDVGVYYCMQPLQTPLFTFGPGTKVEIKGGSSGEIVLTQSPGTLSLSPGETATLSCRASQSFSSDLAWYQQKPGQAPRLLIYGASSRATGIPDRFSGSGSGTDFTLTISRLEPADFAVYYCQQYGSSPPVTFGGGTKVEIKGGGGSGGSGSGGGGSASGSGEVQLVESGGGLIQPGGSLRLSCAASGVIVSYNYMNWVRQAPGKGLEWVSVIYSGGSTFYADSVRGRFTISRDNSKNTLYLQMNSLRAEDTAVYYCARDLGPAGAFDIWGLGTMVTVSSGGSSGQVTLRESGPALVKPTQTLTLTCTFSGFSLSTRGVCVSWIRQPPGKALEWLAFIDWDDDKYYNTSLKTRLTISKDTSKNQVVLTMTNVHPVDTATYYCARISSHHGSSWCTTFDYWGQGALVTVSAASGGSGDKTHTCPPCPAPELLGGPSVFLFPPKPKDTLMISRTPEVTCVVVDVSHEDPEVKFNWYVDGVEVHNAKTKPREEQYNSYVVSVLTVLHQDWLNGKEYKCKVSNKALPAPIEKTISKAKGQPREPQVCTLPPSRDELTKNQVSLSCAVKGFYPSDIAVEWESNGQPENNYKTTPPVLDSDGSFFLVSKLTVDKSRWQQGNVFSCSVLHEALHSHYTQKSLSLSPG

Tests used:
Assay in all cases: cell-based or functional assay
[1] = target: SARS-CoV-2 Omicron BA.2.75.2 spike protein (SARS-CoV-2)
[2] = target: SARS-CoV-2 Omicron BQ.1.1 spike protein (SARS-CoV-2)
[3] = target: SARS-CoV-2 Omicron XBB spike protein (SARS-CoV-2)
[4] = target: SARS-CoV-2 Omicron BA.4/5 spike protein (SARS-CoV-2)
[5] = target: SARS-CoV-2 Omicron BQ.1 spike protein (SARS-CoV-2)
[6] = target: SARS-CoV-2 spike (S) protein, Omicron sublineage BF.7 (SARS-CoV-2)
[7] = target: SARS-CoV-2 spike (S) protein, Omicron sublineage XBB1.5 (SARS-CoV-2)
[8] = target: SARS-CoV-2 spike (S) protein, Omicron sublineage XBB (SARS-CoV-2)
[9] = target: SARS-CoV-2 spike (S) protein, Omicron sublineage BQ.1 (SARS-CoV-2)
[10] = target: SARS-CoV-2 spike (S) protein, Omicron sublineage BQ.1.1 (SARS-CoV-2)
[11] = target: SARS-CoV-2 spike (S) protein, Omicron sublineage XBB (SARS-CoV-2); remark: listed apart in the source

Binder | IC50, pseudovirus neutralization [1] [ng/mL] | IC80, pseudovirus neutralization [1] [ng/mL] | IC50, pseudovirus neutralization [2] [ng/mL] | IC80, pseudovirus neutralization [2] [ng/mL] | IC50, pseudovirus neutralization [3] [ng/mL] | IC80, pseudovirus neutralization [3] [ng/mL] | IC50, pseudovirus neutralization [4] [ng/mL] | IC80, pseudovirus neutralization [4] [ng/mL] | IC50, pseudovirus neutralization [5] [ng/mL] | IC80, pseudovirus neutralization [5] [ng/mL] | IC50, pseudovirus neutralization [6] [nM] | IC80, pseudovirus neutralization [6] [nM] | IC50, pseudovirus neutralization [7] [nM] | IC80, pseudovirus neutralization [7] [nM] | also measured
B1 | 2.91 | 5.43 | 1.5 | 8.57 | 6.09 | 18 | 2.68 | 6.06 | 6.02 | 22.3 |  |  |  |  | 
B2 |  |  |  |  |  |  |  |  |  |  | 12.9 | 33.8 | 12 | 33 | 
B3 |  |  |  |  |  |  |  |  |  |  | 12 | 30.6 | 37.8 | 96.7 | 
B4 |  |  |  |  |  |  |  |  |  |  |  |  |  |  | IC50, pseudovirus neutralization [8]: 11.3 ng/mL; IC80, pseudovirus neutralization [8]: 17.7 ng/mL; IC50, pseudovirus neutralization [9]: 16 ng/mL; IC80, pseudovirus neutralization [9]: 52.2 ng/mL; IC50, pseudovirus neutralization [10]: 11.1 ng/mL; IC80, pseudovirus neutralization [10]: 17 ng/mL; IC50, pseudovirus neutralization [11]: 11.3 nM; IC80, pseudovirus neutralization [11]: 17.7 nM
B5 | 0.36 | 1.29 | 1.23 | 3.97 | 1.26 | 2.88 | 0.9 | 1.56 | 1.66 | 4.08 |  |  |  |  | 

— US20240109955A1
